The values that follow come from publication PMC10681709, “Molecular insight into the specific enzymatic properties of TREX1 revealing the diverse functions in processing RNA and DNA/RNA hybrids”.

Data set [1] addresses T1, mTREX1 truncated (nuclease domain) (Mus musculus, UniProt Q91XB0 1-242).
T1 sequence: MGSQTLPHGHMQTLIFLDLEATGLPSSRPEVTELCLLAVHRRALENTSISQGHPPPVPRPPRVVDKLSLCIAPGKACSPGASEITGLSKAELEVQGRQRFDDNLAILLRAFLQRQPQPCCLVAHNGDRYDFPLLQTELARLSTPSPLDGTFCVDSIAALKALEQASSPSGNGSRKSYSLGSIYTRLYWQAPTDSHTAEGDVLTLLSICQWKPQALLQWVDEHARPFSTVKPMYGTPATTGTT
The data set is described as follows: fluorescence anisotropy; 20 mM EDTA; not saturated, extrapolated (legend prints uM, text nM); FA: 5 nM FAM nucleic acid, 120 mM NaCl, 20 mM Tris pH 7.0, 20 mM EDTA, room temperature, 30 min; RNase T EMSA: 120 mM NaCl, 50 mM EDTA, 20 mM buffer (truncated). The note with it: protein: recombinant; tags: His-tag; chain copies: 2; label: 5'-FAM; single strand.

In data set [2] the target is T1, mTREX1 truncated (nuclease domain). Nature of the data set: fluorescence anisotropy; 20 mM EDTA, no Mg2+; FA: 5 nM FAM nucleic acid, 120 mM NaCl, 20 mM Tris pH 7.0, 20 mM EDTA, room temperature, 30 min; RNase T EMSA: 120 mM NaCl, 50 mM EDTA, 20 mM buffer (truncated). Particulars: protein: recombinant, tags: His-tag, chain copies: 2.
Data set [3] shares this target. Nature of the data set: fluorescence anisotropy; 20 mM EDTA; Kd stated between those of dsDNA (139.4 nM) and DNA/RNA hybrid (102.0 nM); FA: 5 nM FAM nucleic acid, 120 mM NaCl, 20 mM Tris pH 7.0, 20 mM EDTA, room temperature, 30 min; RNase T EMSA: 120 mM NaCl, 50 mM EDTA, 20 mM buffer (truncated). Particulars: protein: recombinant; tags: His-tag; chain copies: 2; label: 5'-FAM on strand 1; blunt. For orientation: Fluorescence polarisation rises when a labelled molecule tumbles more slowly, as on binding a larger partner.

Data set [4] shares this target. The data set is described as follows: fluorescence anisotropy; 20 mM EDTA; extrapolated; legend prints uM, but nM fits the stated ~500-fold drop vs ssDNA20; FA: 5 nM FAM nucleic acid, 120 mM NaCl, 20 mM Tris pH 7.0, 20 mM EDTA, room temperature, 30 min; RNase T EMSA: 120 mM NaCl, 50 mM EDTA, 20 mM buffer (truncated). The note with it: protein: recombinant; tags: His-tag; chain copies: 2; label: 5'-FAM; single strand.

In the case of ACUGGACAAAUACUCCGAGG (ssRNA) [ssRNA20], the Kd (usually the constant that tells how readily two partners part at equilibrium) in data set [1] is about 59000 nM.

Take ACTGGACAAATACTCCGAGG (ssDNA) [ssDNA20]: the Kd in data set [2] (label: 5'-FAM, single strand) worked out at 77.7 ± 6 nM.

B1: DNA/RNA hybrid 20 bp (DNA:RNA)
DNA: ACTGGACAAATACTCCGAGG
RNA: CCUCGGAGUAUUUGUCCAGU
As for B1, in data set [2] (blunt), the Kd is 102 ± 8 nM.

B2: dsDNA19+RNA1 (ss19D1R/ssDNA20) (mixed)
DNA 1: ACTGGACAAATACTCCGAGG
DNA 2: CCTCGGAGTATTTGTCCAGT
modifications: strand 1 3'-terminal G20 is a ribonucleotide; rest DNA
For B2, the binding result in data set [3] was “binds”.

B3: dsDNA20 (dsDNA)
DNA 1: ACTGGACAAATACTCCGAGG
DNA 2: CCTCGGAGTATTTGTCCAGT
For B3, the Kd in data set [2] (label: 5'-FAM on strand 1, blunt) turned out to be 139 ± 17.2 nM. ACTGGACAAATACTCCGAGG (mixed, 3'-terminal A18 G19 G20 are ribonucleotides; positions 1-17 DNA) [ssDNA17+RNA3 (ss17D3R)]: the Kd in data set [4] was about 39600 nM.
